The target in the experiment is T1, GST-CTU2 (Arabidopsis thaliana (Mouse-ear cress), UniProt O65628).
T1 chain: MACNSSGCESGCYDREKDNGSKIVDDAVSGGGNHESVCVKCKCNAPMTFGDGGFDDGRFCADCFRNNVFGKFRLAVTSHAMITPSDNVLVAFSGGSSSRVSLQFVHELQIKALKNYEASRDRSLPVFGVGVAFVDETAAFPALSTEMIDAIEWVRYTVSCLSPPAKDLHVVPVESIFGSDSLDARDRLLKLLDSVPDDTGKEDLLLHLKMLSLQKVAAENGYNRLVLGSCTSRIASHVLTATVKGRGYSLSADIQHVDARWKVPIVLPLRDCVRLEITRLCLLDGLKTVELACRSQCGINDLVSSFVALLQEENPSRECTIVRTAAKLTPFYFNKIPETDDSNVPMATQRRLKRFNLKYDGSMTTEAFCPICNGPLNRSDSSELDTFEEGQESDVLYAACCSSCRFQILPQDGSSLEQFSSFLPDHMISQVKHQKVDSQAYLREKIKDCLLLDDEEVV
Kind of experiment: GST pull-down.

B1: ROL5-His (protein)
chain: MEAKNKKAVASRLCCLCNLRRPVLKRPKTLQQICRECFYEVFEEEIHQVIVQNRLFKSGERVAIGASGGKDSTVLAYVLSELNRRHNYGLDLFLLSIDEGITGYRDDSLETVKRNEVQYGLPLKIVSYKDLYGWTMDEIVKMIGLKNNCTFCGVFRRQALDRGAALLKVEKLVTGHNADDIAETVLLNILRGDIARLSRCTSITTGEDGPIPRCKPFKYTYEKEIVMYAYFKKLDYFSTECIYSPNAYRGFAREFIKDLERIRPRAILDIIKSGEDFRIATTTKMPEQGTCERCGYISSQKWCKACVLLEGLNRGLPKMGIGRPRGVNGDHNKETKKPGSVAKSIESKQCGSLDF
With B1, the binding result is “binds”.

(Values after article PMC10863982 (2024).)
